Assay results from publication PMC12607895, “CD46 is a cellular receptor for species D human adenovirus” (mBio, 2025).

Molecular target: HAdV-C5 virion (human adenovirus C5 (HAdV-C5), UniProt P04133 1-952; P12538 1-571; P11818 1-581, whole virion; only the major capsid proteins listed, minor/core proteins and DNA not named)
Test: SPR; Biacore T200; CD46 or CAR amine-coupled to a CM5 chip (2,390-2,640 RU CD46, 2,380-2,870 RU CAR); whole virions as analyte, twofold series 50-12.5 µg/mL, 120 s at 30 µL/min; 25°C, HBS-EP+ (10 mM HEPES, 150 mM NaCl, 3 mM EDTA, 0.005% P20, pH 7.4); performed once
Settings: both partners purified

B1: coxsackievirus and adenovirus receptor (CAR) (receptor)
chain: LSITTPEEMIEKAKGETAYLPCKFTLSPEDQGPLDIEWLISPADNQKVDQVIILYSGDKIYDDYYPDLKGRVHFTSNDLKSGDASINVTNLQLSDIGTYQCKVKKAPGVANKKIHLVVLVKPSGARCYVDGSEEIGSDFKIKCEPKEGSLPLQYEWQKLSDSQKMPTSWLAEMTSSVISVKNASSEYSGTYSCTVRNRVGSDQCLLRLNVVPPSNKAGLIAGAIIGTLLALALIGLIIFCCRKKRREEKYEKEVHHDIREDVPPPKSRTSTARSYIGSNHSSLGSMSPSNMEGYSKTQYNQVPSEDFERTPQSPTLPPAKVAAPNLSRMGAIPVMIPAQSKDGSIV
notes: coxsackievirus and adenovirus receptor (CAR), coupled to the CM5 sensor chip; also called CXADR
B1 showed a Kd of 1.1 pM.
